Assay results as given in the DeepSol protein solubility set.

assay: soluble on expression in E. coli; label from the status in PepcDB or PDB records

Sequence | soluble on expression in E. coli
SLLKKIKKALFQPKKFFQDSMWLTTSPFYLTPPRNNLFVISNLGQLNQVQSLIKIQKLTNNLLVILYTSKNLKMPKLVHQSANKNLFESIYLFELPRSPNNITPKKLLYIYRSYKKILNIIQPAHLYMLSFTGHYSYLISIAKKKNITTHLIDEGTGTYAPLLESFSYHPTKLERYLIGNNLNIKGYIDHFDILHVPFPEYAKKIFNAKKYNRFFAHAGGISINNNIANLQKKYQISKNDYIFVSQRYPISDDLYYKSIVEILNSISLQIKGKIFIKLHPKEMGNNYVMSLFLNMVEINPRLVVINEPPFLIEPLIYLTNPKGIIGLASSSLIYTPLLSPSTQCLSIGELIINLIQKYSMVENTEMIQEHLEIIKKFNFINILNDLNGVISNPLFKTEETFETLLKSAEFAYKSKNYFQAIFYWQLASKNNITLLGHKALWYYNALYNVKQIYKMEYSDIFYIDNISVDFHSKDKLTWEKIKHYYYSADNRIGRDR | not soluble
SLNIKLKDFTMINAVSSLAPVQSLGNYKRVEKNEKVENNEAALDRVAEIKKAIENNQYKINLHETSHKMAKDLLGIS | soluble
SLPGMEHNHNHDHSSHGNHAMHDVGPADATYDLRFIDAMIQHHYGAIEMAKVTINQGYPGAGALASQIISAQSWEIANMLRQRQLRFPDAPIMPVRYTPGQSTVLSQLQPMTEADKVAMRMSGTMDMTGDRGKAFAAAMIPHHEMAIAMAEDALAKSGDSFVRSISWEIIRTQSDEIRRLRGLL | not soluble
SLPHPAPGPGDPEDPRLAEVVDAVRSSRRYQSVAPETVRRLATSALVASRGDLAEAVKRTKRGLHEIFGAYLPSPPKYDALLRQLRGAVDAATTRPCGHPAPRHVHARLHPRALPILDEFYREVFARCADPASVRDLACGMNPLAAPWMPGSDAFTYHASDIDTRLMEFLDAALETLGVAHDVRVRDLMTGVGEVETDVTLLLKTVPCIEAQGRGQGWDLIDAIRSPLVVVSFPTKSLGQRSKGMFNTYSANFDAWLENRPHDVEQLEFRNELVYFVRKNA | soluble
SLRHFGKRLRVSSSQPFRRSFNPKGEPMSTQIFVNLPVKNLNQSIEFFTQLGFQFNSQFTDETATCMIVSESIFVMLLTHEKFKMFTPKEICDATKSTEVLVCLSFDSREQVDEMVRLAVTAGGTTYNEPQDHGFMYGHGFADLDGHIWEIIYMEPSAINLGEG | soluble
SLRRAAKAEAQAWLLTERLAQAEERHRLLEDQSATQIELIKAQAAQSANAIAEQLIKRADENAKSRERLAEARLEAQLKPVAETLAKFEAQVTAVEKARAEETGGLKAQITALLEASTATQAEARKLSAALRRGAGVQGRWGEQTLRNVLEAAGLNSRFDFQEQFSVDSEEGRRRPDVKVTLPGGGVFVIDAKCSLNAFLEAQDATDEVLREAAMARHAQSVRTHMQGLSSKAYWDQFAGEGSPDFVAMFVPGDGFLAAALDRLPELMAEAMDRRVVLVTPTTLFALCKAVAYGWRAEDQAKNAARIVEVGRELYKRVSVMGAHAGAMGKALESAVGKYNQFVGSLESQVLTQARRFEDLSVDHEGKEIPEPPMVDQAVRPLTKLKAVGQSPTLTLGNDTPT | soluble
SLSAASILVVDDEESLRITLAANLELEGHLVLEASSGDEALRLLRERAVDVVLTDIRMPGLHGVELHRHLRREHPGLPVVLMTAFAQESLINDALAEGAFTVLPKPFDVEHLLETLRREG | soluble
SLSAPIRVLVVDDHVLSRRELEVALAAEADIEVVGSAVNSPAAVTLGSESRPDVALVDVEEPHEDGIRAVSAIKRAVSPVRILILATSDDEAHLFGAVRAGAVGYLLKPRPMDELTAAVRSVHNGVSIIGPGVASQVMKEFAAMARSEKSPAMPHLTVRELDVLKLMVGGCANQGISRRLLISENTVKNHIRNILEKLQFSAWEG | soluble
SLSFTLEEEDITGTWYVKAMVVDKDFPEDRRPRKVSPVKVTALGGGNLEATFTFMREDRCIQKKILMRKTEEPGKFSAYGGRKLIYLQELPGTDDYVFYCKDQRRGGLRYMGKLVGRNPNTNLEALEEFKKLVQHKGLSEEDIFMPLQTGSCVLEH | soluble
SLSMKLLIADDEDTIRNGIAKYIKLHTDRFSQIYLAENGQQALDIILQYQPDMMLLDVQMPLKTGLEVLQEAQKLSLVPKTIILSGYDDFEYARKALRYGAKDYLLKPCRSSEILEAINKLVQEQLGTKEDVECEEGTGIHYIVSSAIEYMEEYYHKNLTLIEVSNKVGITAGYLSTLFTQNMNCGFVEYLNKIRIKHACSYLEQNYFKTYEIAYKVGFKDEKYFSKVFKKETGITPYEYRRDHSIGKNIRTEG | soluble
SLSPAPTTMDFTPAPLEDTSSRPQFCKWPCECPPSPPRCPLGVSLITDGCECCKMCAQQLGDNCTEAAICDPHRGLYCDYSGDRPRYAIGVCAQVVGVGCVLDGVRYNNGQSFQPNCKYNCTCIDGAVGCTPLCLRVRPPRLWCPHPRRVSIPGHCCEQWVCEDDAKRPRKTAPRDTGAFDAVGEG | soluble
SLVRNGRIAFAGPESDLPDDLSTADETTDCGGRWITPALIDCHTHLVFGGNRAMEFEMRLNGATYEEIAKAGGGIVSSVRDTRALSDEVLVAQALPRLDTLLSEGVSTIEIKSGYGLDIETELKMLRVARRLETLRPVRIVTSYLAAHATPADYKGRNADYITDVVLPGLEKAHAEGLADAVDGFCEGIAFSVKEIDRVFAAAQQRGLPVKLHAEQLSNLGGAELAASYNALSADHLEYLDETGAKALAKAGTVAVLLPGAFYALREKQLPPVQALRDAGAEIALATDCNPGTSPLTSLLLTMNMGATLFRMTVEECLTATTRNAAKALGLLAETGTLEAGKSADFAIWDIERPAELVYRIGFNPLHARIFKGQKVSP | not soluble
SMARENGESSSSWKKQAEDIKKIFEFKETLGTGAFSEVVLAEEKATGKLFAVKCIPKKALKGKESSIENEIAVLRKIKHENIVALEDIYESPNHLYLVMQLVSGGELFDRIVEKGFYTEKDASTLIRQVLDAVYYLHRMGIVHRDLKPENLLYYSQDEESKIMISDFGLSKMEGKGDVMSTACGTPGYVAPEVLAQKPYSKAVDCWSIGVIAYILLCGYPPFYDENDSKLFEQILKAEYEFDSPYWDDISDSAKDFIRNLMEKDPNKRYTCEQAARHPWIAGDTALNKNIHESVSAQIRKNFAKSKWRQAFNATAVVRHMRKLHLGSSLDSSNA | soluble
SMEDPDQLYTTLKNLLAQIKSHPSAWPFMEPVKKSEAPDYYEVIRFPIDLKTMTERLRSRYYVTRKLFVADLQRVIANCREYNPPDSEYCRCASALEKFFYFKLKEGGLIDK | soluble
SMNSNMGSDSGTMGSDSDEENVAARASPEPELQLRPYQMEVAQPALEGKNIIICLPTGSGKTRVAVYIAKDHLDKKKKASEPGKVIVLVNKVLLVEQLFRKEFQPFLKKWYRVIGLSGDTQLKISFPEVVKSCDIIISTAQILENSLLNLENGEDAGVQLSDFSLIIIDECHHTNKEAVYNNIMRHYLMQKLKNNRLKKENKPVIPLPQILGLTAS | soluble
SMPNHQKVVLVGDGAVGSSYAFAMAQQGIAEEFVIVDVVKDRTKGDALDLEDAQAFTAPKKIYSGEYSDCKDADLVVITAGAPQKPGESRLDLVNKNLNILSSIVKPVVDSGFDGIFLVAANPVDILTYATWKFSGFPKERVIGSGTSLDSSRLRVALGKQFNVDPRSVDAYIMGEHGDSEFAAYSTATIGTRPVRDVAKEQGVSDDDLAKLEDGVRNKAYDIINLKGATFYGIGTALMRISKAILRDENAVLPVGAYMDGQYGLNDIYIGTPAIIGGTGLKQIIESPLSADELKKMQDSAATLKKVLNDGLAELENK | soluble
SMQEKREELRMRSENQAMNIVLQRQYDQYRLSIDNIELLRREFHDLKHYMIAIRSEQDPKKKEQYLLEMEEAIHTQEALTNTGNSVLDVVLTTKSTYCMQKHITFTCMADGKLISFMHVKDICSIFGNALDNAIECVSQFDDPEKRLITLSMYQKNQLLMIQCENYTETSLSLKPDQLPTTTKQNAGYHGYGLKSIQQAARKYGGSMTLHAEDNWFTLQVLIPVES | not soluble
SMQVERESISRLMQNYEKINVNEITRFSDFPLSKKTLKGLQEAQYRLVTEIQKQTIGLALQGKDVLGAAKTGSGKTLAFLVPVLEALYRLQWTSTDGLGVLIISPTRELAYQTFEVLRKVGKNHDFSAGLIIGGKDLKHEAERINNINILVCTPGRLLQHMDETVSFHATDLQMLVLDEADRILDMGFADTMNAVIENLPKKRQTLLFSATQTKSVKDLARLSLKNPEYVWVHEKA | soluble
SMSETFDVELTKNVQGLGITIAGYIGDKKLEPSGIFVKSITKSSAVEHDGRIQIGDQIIAVDGTNLQGFTNQQAVEVLRHTGQTVLLTLMRRGETSV | soluble
SMSGMKSSKSKDVLSAAEVMQWSQSLEKLLANQTGQNVFGSFLKSEFSEENIEFWLACEDYKKTESDLLPCKAEEIYKAFVHSDAAKQINIDFRTRESTAKKIKAPTPTCFDEAQKVIYTLMEKDSYPRFLKSDIYLNLLNDLQA | soluble
SMSKHHKLARSLRSGPSDHDLKPNAATRDQLNIIVSYPPTKQLTYEEQDLVWKFRYYLTNQEKALTKFLKCVNWDLPQEAKQALELLGKWKPMDVEDSLELLSSHYTNPTVRRYAVARLRQADDEDLLMYLLQLVQALKYENFDDIKNGLEPTKKDSQSSVSENVSNSGINSAEIDSSQIITSPLPSVSSPPPASKTKEVPDGENLEQDLCTFLISRACKNSTLANYLYWYVIVECEDQDTQQRDPKTHEMYLNVMRRFSQALLKGDKSVRVMRSLLAAQQTFVDRLVHLMKAVQRESGNRKKKNERLQALLGDNEKMNLSDVELIPLPLEPQVKIRGIIPETATLFKSALMPAQLFFKTEDGGKYPVIFKHGDDLRQDQLILQIISLMDKLLRKENLDLKLTPYKVLATSTKHGFMQFIQSVPVAEVLDTEGSIQNFFRKYAPSENGPNGISAEVMDTYVKSCAGYCVITYILGVGDRHLDNLLLTKTGKLFHIDFGYILGRDPKPLPPPMKLNKEMVEGMGGTQSEQYQEFRKQCYTAFLHLRRYSNLILNLFSLMVDANIPDIALEPDKTVKKVQDKFRLDLSDEEAVHYMQSLIDESVHALFAAVVEQIH | soluble
SMSNTTIEDEDVKARKQEIIKVTEQLIEAINNGDFEAYTKICDPGLTAFEPEALGNLVEGMDFHRFYFENALSKSNKPIHTIILNPHVHLVGDDAACIAYIRLTQYMDGSGMPKTMQSEETRVWHRRDGKWQNVHFHRSGSPTV | soluble
SMSSHDGLMVFTGNANPALAQEVVKILGIPLGKAMVSRFSDGEIQVEIQENVRGKDVFVLQSTCAPTNDNLMELMIMVDALKRASAGRITAAIPYFGYARQDRRPRSARVAISAKVVANMLEIAGVERIITMDLHADQIQGFFDIPVDNIYATPILLGDLRKQNYPDLLVVSPDVGGVVRARALAKQLNCDLAIIDKRRPKANVAEVMNIIGEVEGRTCVIMDDMVDTAGTLCKAAQVLKERGAKQVFAYATHPVLSGGAADRIAASALDELVVTDTIPLSAESLACPKIRALSSAGLLAETFSRIRRGDSVMSLFAES | soluble
SMSYESPFHLNDAVAIVTGAAAGIGRAIAGTFAKAGASVVVTDLKSEGAEAVAAAIRQAGGKAIGLECNVTDEQHREAVIKAALDQFGKITVLVNNAGGGGPKPFDMPMSDFEWAFKLNLFSLFRLSQLAAPHMQKAGGGAILNISSMAGENTNVRMASYGSSKAAVNHLTRNIAFDVGPMGIRVNAIAPGAIKTDALATVLTPEIERAMLKHTPLGRLGEAQDIANAALFLCSPAAAWISGQVLTVSGGGVQELD | soluble
